Biological target: T1, extracellular domain (residues 21-643) of the human ErbB3 receptor (Homo sapiens, UniProt P21860)
T1 construct: ErbB3 receptor (HER3), human, extracellular domain, residues 21-643; The ErbB3 gene fragment is followed by a hexahistidine tag and a FLAG-tag; also called HER3; extracellular domain of ErbB3; source: CHO-T-HC cells, transfected (pEE vector), purified from culture fluid (HisTrap HP, Superdex 200 SEC)
Assay: SPR; Biacore T200; ErbB3 extracellular domain immobilised on CM5 chip by amine coupling; BCD090-M2 injected at 1 uM down to 0.49 nM in 10 mM HEPES pH 7.4, 0.15 M NaCl, 50 ug/ml BSA; 37°C; equilibrium fit of response against concentration; mean of three experiments
Conditions: both partners purified

T1 sequence (P21860 21-643): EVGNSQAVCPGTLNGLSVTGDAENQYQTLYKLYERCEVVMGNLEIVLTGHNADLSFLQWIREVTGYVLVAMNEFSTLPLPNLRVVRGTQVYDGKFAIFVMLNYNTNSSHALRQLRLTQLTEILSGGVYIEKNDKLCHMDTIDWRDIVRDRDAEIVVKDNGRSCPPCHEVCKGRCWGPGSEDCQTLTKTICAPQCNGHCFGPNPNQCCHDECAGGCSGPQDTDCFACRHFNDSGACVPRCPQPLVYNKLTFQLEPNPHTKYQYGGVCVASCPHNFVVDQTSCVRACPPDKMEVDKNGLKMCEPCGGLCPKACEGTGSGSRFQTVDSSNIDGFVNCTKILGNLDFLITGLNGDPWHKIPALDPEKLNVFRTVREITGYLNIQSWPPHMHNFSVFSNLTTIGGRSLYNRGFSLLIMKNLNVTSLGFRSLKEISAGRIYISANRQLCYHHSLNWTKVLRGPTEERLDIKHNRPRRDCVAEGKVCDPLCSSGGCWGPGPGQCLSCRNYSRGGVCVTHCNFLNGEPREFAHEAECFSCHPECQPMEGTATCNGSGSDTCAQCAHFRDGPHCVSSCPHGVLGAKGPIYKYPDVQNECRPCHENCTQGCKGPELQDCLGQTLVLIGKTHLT

B1: llama VHH antibody BCD090-M2 (VHH)
VHH: QVQLVQSGGGLVQAGGSLRLSCAFSGRTFSMYTMGWFRQAPGKEREFVAANRGRGLSPDIADSVNGRFTISRDNAKNTLYLQMDSLKPEDTAVYYCAADLQYGSSWPQRSSAEYDYWGQGTTVTVSS
notes: 128 residues in the PDB entries; a single additional N-terminal glycine is left from the TEV recognition site; Selected by phage display from immunized llamas; also called VHH fragment of the antibody BCD090-M2; not shown: His6, N-terminal, cleaved; SUMO, N-terminal, cleaved
Kd: 15 ± 1 nM
